The supplement of paper PMC9170038

System: MS2 coat protein
Assay: apparent KD of MS2 coat protein; designed switch direction (-1 OFF switch, 1 ON switch): -1; higher = weaker reporter binding
Method in brief: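 Designed RNA switches were transcribed on Illumina chips by stalled E. coli RNA polymerase and titrated with SNAP-549-labelled MS2 coat protein from 0.7 or 1.5 nM, doubling to 3 µM. Step length ran from 0.8–1.5 h at the lowest concentration to 10–20 min at the highest. The apparent KD is the median over clusters for each design, from curve-fitted normalised cluster fluorescence.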

[1] = Eterna round: R95, input ligand: FMN 200 uM
[2] = Eterna round: R95, input ligand: microRNA oligo, concentration not stated
[3] = Eterna round: R95, input ligand: none
[4] = input ligand: microRNA oligo, concentration not stated

Row | Sequence | apparent KD of MS2 coat protein (input ligand: FMN 200 uM) | apparent KD of MS2 coat protein (input ligand: none) | apparent KD of MS2 coat protein [1] | apparent KD of MS2 coat protein [2] | apparent KD of MS2 coat protein [3] | apparent KD of MS2 coat protein [4]
1 | UAUGUGUCAGGAUAUUAGUAGUAAAUAAAUAAAAUUAUUACUGAGAAGGGACAUGAGGAUCACCCAUGUACCUU [JR_Ex4_Sub051] (Eterna round: R97, puzzle: Exclusion 4) | 22.6 nM | 16.2 nM | – | – | – | –
2 | AGUAACCGUCACGAAAGUGAUGGUUACACAAGUGUAAUAACAUGAGGAUCACCCAUGUCCUCAUUUGCUCGUCUUAU [Sensor 3 - 36] (puzzle: Sensor v3, turn-off variant 2) | – | – | 41.9 nM | 121 nM | 49.4 nM | –
3 | CUUCACCCACCAGAGCUCACCCACAAACCUGCCCUGGUGACAUGAGGAUCACCCAUGUUUUUUGCCCGUCUUAUCUU [Diletibi] (puzzle: Sensor v3, turn-off variant 2) | – | – | 42 nM | 241 nM | 46.8 nM | –
4 | UGAUCUAGGCGAGGAUAUACAUGAGGAUCACCCAUGUAAACGUGACAUGAAAACAUGUCACGAAUGUAGAAGGCGCCUAGAUCU [JL ENG2 3.54] (Eterna round: R96, puzzle: Exclusion NG 2) | 21.7 nM | 13.3 nM | – | – | – | 13.2 nM
5 | AGUACUUACUCGAUAGUGUUAGUACAAUAAGCUUGUGAAACAUGAGGAUCACCCAUGUCCUCAUAAGCUCGUCUUAU [salish99_TOv2_r3_1005] (puzzle: Sensor v3, turn-off variant 2) | – | – | 17.6 nM | 627 nM | 15.8 nM | –
6 | CAUCCACAUGAGGAUCACCCAUGUCAGGAUAUCGCGCGCGCGUUUUCGGUCUUUCGCGCGAGAAGGGACGACUG (puzzle: Exclusion 1) | – | – | – | 13.3 nM | – | –
7 | CCGGCUUAGCAGGAUAUAGGAGUCGAUAGACACCUAGAAGGGCUAACAUGAGGAUCACCCAUGUGUCCUACCGG [Mod of Eli 2 - Jieux - Exclusion 6] (Eterna round: R97, puzzle: Exclusion 6) | 102 nM | 47.6 nM | – | – | – | –
8 | CUGCUGGAGCGGCGCUUUGGUCGUACAUGAGGAUCACCCAUGUAGGAUAUGGUAAAAUUUGCCUGCUAGAAGGAUAGAGUGGUC [salish99_ExNG3_r04_616] (Eterna round: R96, puzzle: Exclusion NG 3) | 124 nM | 91.6 nM | – | – | – | 70 nM
9 | CGCUAGUCAGGAUAUACGAACAUGUCAAAAGACGUGAAGGGACAUGAGGAUCACCCAUGUAGAAGGGACUAGCA [salish99_ex2_r3_014] (Eterna round: R96, puzzle: Exclusion 2) | 165 nM | 31.5 nM | – | – | – | 22.2 nM
10 | GCAGCAAACUCUAUUAAAACCACAUGAGGAUCACCCAUGUCUCAGGAUAUGGUCUGGAUUACAGGCCAGAAGGGAGAAAGCUGC [Eli exng3 - 054] (Eterna round: R96, puzzle: Exclusion NG 3) | 15 nM | 15.1 nM | – | – | – | 10.9 nM
11 | ACUAGAUGAGGAUAUGCAUGUUUUCAUGUUCUUCUAGAUUAACAUGAGGAUCACCCAUGUAGAAGGCGUCUUUU [Exclusion 2 - 31] (puzzle: Exclusion 2) | – | – | – | 22.4 nM | – | –
12 | CUGAGGUAGCGGUCCUAUGACAUGAGGAUCACCCAUGUACCUUGCUACGAGCUUUUUGCUCGUCUUAUAAUUCUCAG [Mat - Sensor v3 - turn-off var 1 - JL Mod - D31] (puzzle: Sensor v3, turn-off variant 1) | – | – | 151 nM | 96.5 nM | 247 nM | –
13 | AAGACCUUUGUCAGGAUAUCAAGGCAAUUCGCCGGUGAGAAGGGACAUGAGGAUCACCCAUGUAAAGAAAAGAA [Rausedlave] (puzzle: Brourd's mod of Exclusion 4) | – | – | 69 nM | 20.1 nM | 19.7 nM | –
14 | CUUAGUUGGUAAGGAUAUCCUACAUUAUUCUGACCCGUGCAAGCUACAUGAGGAUCACCCAUGUGGGAGAAGGUGCGUUAAUGU [Design 6] (Eterna round: R96, puzzle: Exclusion NG 2) | 18.4 nM | 20.1 nM | – | – | – | 12.9 nM
15 | AUCAUGUAAGGAUAUCUUAUAUGGAUCGAAAGAUCAAGUUAAGAGAAGGUACAUGAGGAUCACCCAUGUAUAAC [Ex4-3: 33] (puzzle: Exclusion 4) | – | – | – | 19.4 nM | – | –
16 | ACAUGUACAGAGGAUAUGCGCCUUGGCAAUGGUGUAGAAGGCUGAACAUGAGGAUCACCCAUGUGCAAUCCAAC [EX6 A.5] (Eterna round: R97, puzzle: Exclusion 6) | 378 nM | 55.4 nM | – | – | – | –
17 | GCACGAAGUGGAGGAUAUCUGGGCGAGGAGCGCAGAGAAGGCCACAUGAGGAUCACCCAUGUUUUCCACGGAUAGCAAACGUGC [exng1 ex2.1] (Eterna round: R96, puzzle: Exclusion NG 1) | 25.5 nM | 23 nM | – | – | – | 15.2 nM

Row | Sequence | apparent KD of MS2 coat protein (input ligand: FMN 200 uM) | apparent KD of MS2 coat protein (input ligand: none) | apparent KD of MS2 coat protein [1] | apparent KD of MS2 coat protein [2] | apparent KD of MS2 coat protein [3] | apparent KD of MS2 coat protein [4]
18 | UCUGCCGCCGUGAGGAUAUGCCCGCGCGAACGCGGGCAGAAGGCACAUGAGGAUCACCCAUGUCCCGCGGUUUU [salish99_bmx4_r4_132] (Eterna round: R97, puzzle: Brourd's mod of Exclusion 4) | 34.7 nM | 17.2 nM | – | – | – | –
19 | GGUUGGCGAGGAUAUACAUGAGGAUCACCCAUGUGAGAGAAAAAAGUGCGGAAGAAAAGUAGAAGGCGCUGACG [salish99_ex3_r3_029] (puzzle: Exclusion 3) | – | – | 82.7 nM | 25.1 nM | 25.7 nM | –
20 | AGGUGCUUCAGGAGACAUGAGGAUCACCCAUGUUGAGUUAGCGAGGAUAUCGGUAACCCAUGUGAUGAGAAGGCGCAAACCAAU [Ex NG3 #46] (Eterna round: R96, puzzle: Exclusion NG 3) | 92.9 nM | 74.1 nM | – | – | – | 52.4 nM
21 | UAUAUAUAGUAAGGAUAUGUAAUUGUUUUAUAAACAGAAGGUACUGACAUGAGGAUCACCCAUGUUUUAGUGUGGGCAUGUAGA [JMF's solution 33] (Eterna round: R96, puzzle: Exclusion NG 1) | – | – | – | – | – | 45.7 nM
22 | CACGCAUCAGGAUAUACAUGAGGAUCACCCAUGUGUUCCAGCUAGGAAACUAGCAAAUGUAGAAGGGAUGCGUG [Mat - Exclusion 3 - JL Mod - D7] (Eterna round: R97, puzzle: Exclusion 3) | 727 nM | 208 nM | – | – | – | –
23 | AUGCCACAUGAGGAUCACCCAUGUGAGGAUAUGCUAGUAUUCCUAACGGCCGAUGCAGGCAGAAGGCGCUCGGG [Eternabot (L1) Solution 73] (Eterna round: R97, puzzle: Exclusion 1) | 19.5 nM | 24.5 nM | – | – | – | –
24 | GGAUUCCAGUGAGGAUAUCCAAAUAAAAGCCAUGGAGAAGGCACAUGAGGAUCACCCAUGUAGGGCAAUAGCAGCGACCGCUGC [Usxeer] (Eterna round: R96, puzzle: Exclusion NG 1) | 60.8 nM | 35.1 nM | – | – | – | 20.7 nM
25 | AUAAUAAAGGAGGAUAUCGUAUCGGAAACGAUACGAGAAGGUCUAACAUGAGGAUCACCCAUGUUCCUCAAUAA [Mat - Exclusion 6 - Eli Mod - D48] (puzzle: Exclusion 6) | – | – | 54.5 nM | 35.9 nM | 36.1 nM | –
26 | UUAUUAAUUAAGACUGCAAGAUCACAUGAGGAUCACCCAUGUCAGGAUAUCAGCUCGUGUAGAGCUGAGAAGGGACAAGCAGUC [ExNG3/15-A3] (Eterna round: R96, puzzle: Exclusion NG 3) | 314 nM | 123 nM | – | – | – | 97.5 nM
27 | AUCCAGCUAGGAUAUGCAGAGGCGAUCGCGGGCAUGUCCCAACAUGAGGAUCACCCAUGUAGAAGGAGCCAAGG [Eternabot (Original) Solution 48] (Eterna round: R97, puzzle: Exclusion 2) | 76.1 nM | 33.2 nM | – | – | – | –
28 | AUCAGCUCGUGAGGAUAUACAUGAGGAUCACCCAUGUGGUCAUUAGCAGCUUCGGCUGCAUUAAUGUAGAAGGCACGAGCUGAU [ENG2/8-A2] (Eterna round: R96, puzzle: Exclusion NG 2) | 360 nM | 829 nM | – | – | – | 732 nM
29 | UCGCUCCGUGUAGGAUAUCGCCGUACUAUUCGGCGAGAAGGACAUGAGGAUCACCCAUGUAUGUUAUUAUCACGCGUGGCGCAA [Design 59] (Eterna round: R96, puzzle: Exclusion NG 1) | 20.3 nM | 16.9 nM | – | – | – | 15.2 nM
30 | GAUGAGGUAGGAUAUACGAUAAUAUAGGGUAGAUAUAUAACACAUGAGGAUCACCCAUGUAGAAGGACCAGGAG [Mat - Exclusion 2 - Mod of my Tesla design - D65] (puzzle: Exclusion 2) | – | – | 77.3 nM | 28.1 nM | 36.1 nM | –
31 | AAGAAGCUAGGAUAUACAUGAGGAUCACCCAUGUCUCCAUGGUUGACGAGUUCCGCACGUAGAAGGAGCAAAAC [Aerdidima] (Eterna round: R97, puzzle: Exclusion 3) | 225 nM | 56.7 nM | – | – | – | –
32 | GCUCGAAGGAGUGGGAGCAACAUGAGGAUCACCCAUGUGCGGCUAUUUCAUGCUCGUCUUAAAGCUUUGCCCUAGCC [Eternabot (Original) Solution 40] (Eterna round: R97, puzzle: Sensor, turn-off variant 1) | 17.2 nM | 18.5 nM | – | – | – | –
33 | GAGUCUCGAAAGGAUAUUUAGGUGUAUGCAGGUAGAGAAGGUUCGACAUGAGGAUCACCCAUGUAAUGGUUUCC [Eternabot (L2) Solution 25] (Eterna round: R97, puzzle: Exclusion 6) | 157 nM | 84 nM | – | – | – | –
